Test results: IntAct's records for PubMed 15933719

B1: Rab-interacting lysosomal protein (Homo sapiens), Q96NA2 (parent)
chain: MEPRRAAPGVPGWGSREAAGSASAAELVYHLAGALGTELQDLARRFGPEAAAGLVPLVVRALELLEQAAVGPAPDSLQVSAQPAEQELRRLREENERLRRELRAGPQEERALLRQLKEVTDRQRDELRAHNRDLRQRGQETEALQEQLQRLLLVNAELRHKLAAMQTQLRAAQDRERERQQPGEAATPQAKERARGQAGRPGHQHGQEPEWATAGAGAPGNPEDPAEAAQQLGRPSEAGQCRFSREEFEQILQERNELKAKVFLLKEELAYFQRELLTDHRVPGLLLEAMKVAVRKQRKKIKAKMLGTPEEAESSEDEAGPWILLSDDKGDHPPPPESKIQSFFGLWYRGKAESSEDETSSPAPSKLGGEEEAQPQSPAPDPPCSALHEHLCLGASAAPEA

Variants of: B1
Conditions: with rab7a_human RAB7A

Effect of a mutation on the interaction, disrupting interaction strength:
I251A
L258A
L252A
M305A
R255A
L306A
K304A
